For assay [1], the target named is T1, human TGFßRII (antigen of the Octet experiments) (human, UniProt P37173 23-166). The assay can be described thus: BLI (Octet). In general terms: Biolayer interferometry detects binding as a change in optical thickness at a sensor tip.
For assay [2], the target named is T1, human TGFßRII (antigen of the Octet …). The assay can be described thus: BLI (Octet). The source holds these as a separate data set.
In assay [3] the target is Cyno (cynomolgus monkey). The assay can be described thus: Octet.
Assay [4] addresses T2, His-tagged human CD5 antigen (human, UniProt P06127 25-372).
T2 chain: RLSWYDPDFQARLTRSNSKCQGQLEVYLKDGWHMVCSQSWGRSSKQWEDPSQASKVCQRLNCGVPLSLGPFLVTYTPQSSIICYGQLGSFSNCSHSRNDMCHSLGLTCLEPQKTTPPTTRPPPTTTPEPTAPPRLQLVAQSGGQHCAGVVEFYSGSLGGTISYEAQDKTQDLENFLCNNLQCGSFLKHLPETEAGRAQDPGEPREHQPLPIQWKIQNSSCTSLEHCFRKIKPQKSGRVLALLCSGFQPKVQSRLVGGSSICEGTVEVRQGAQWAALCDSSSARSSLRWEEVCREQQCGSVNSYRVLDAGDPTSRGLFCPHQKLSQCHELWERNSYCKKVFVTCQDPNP
The assay can be described thus: Octet.

This note sets out measurements from US20220144956A1 (published 2022).

Like-named read-outs stand apart in the source and are kept apart here.

T1 sequence (P37173 23-166): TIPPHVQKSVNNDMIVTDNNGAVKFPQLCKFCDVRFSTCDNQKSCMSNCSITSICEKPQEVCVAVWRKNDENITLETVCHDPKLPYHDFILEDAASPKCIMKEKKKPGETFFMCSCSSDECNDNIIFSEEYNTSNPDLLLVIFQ

B1: H1.21 L1 XENP35103 (antibody, V domains shown)
VH: QLQVQESGPGLVKPSETLSLTCTVSGGSISNSAFSWGWIRQPPGKGLEWIGSFYYGEKTYYNPSLKSRATISIDTSKSQFSLKLSSVTAADTAVYYCPRGPTMIRGVIDSWGQGTLVTVSS
VL: EIVLTQSPATLSLSPGERATLSCRASQSVRSYLAWYQQKPGQAPRLLIYDASNRATGIPARFSGSGSGTDFTLTISSLEPEDFAVYYCQQRSNWPPTFGQGTKVEIK
Molecule B1 returned a dissociation constant Kd in assay [1] of 0.374 nM.

B2: H1.1 L1 XENP34288 (antibody, V domains shown)
VH: QLQVQESGPGLVKPSETLSLTCTVSGGSISNSYFSWGWIRQPPGKGLEWIGSFYYGEKTYYNPSLKSRATISIDTSKSQFSLKLSSVTAADTAVYYCPRGPTVIRGVIDSWGQGTLVTVSS
VL: EIVLTQSPATLSLSPGERATLSCRASQSVRSYLAWYQQKPGQAPRLLIYDASNRATGIPARFSGSGSGTDFTLTISSLEPEDFAVYYCQQRSNWPPTFGQGTKVEIK
B2 yielded a Kd in assay [1] of 0.352 nM.

B3: H1 L1.55 XENP34618 (antibody, V domains shown)
VH: QLQVQESGPGLVKPSETLSLTCTVSGGSISNSYFSWGWIRQPPGKGLEWIGSFYYGEKTYYNPSLKSRATISIDTSKSQFSLKLSSVTAADTAVYYCPRGPTMIRGVIDSWGQGTLVTVSS
VL: EIVLTQSPATLSLSPGERATLSCRASQSVRSYLAWYQQKPGQAPRLLIYDASNRATGIPARFSGSGSGTDFTLTISSLEPEDFAVYYCQQRSNWPITFGQGTKVEIK
In assay [2], B3 showed a dissociation constant (Kd) of 38 nM.

B4: H1 L1 XENP34287 (antibody, V domains shown)
VH: QLQVQESGPGLVKPSETLSLTCTVSGGSISNSYFSWGWIRQPPGKGLEWIGSFYYGEKTYYNPSLKSRATISIDTSKSQFSLKLSSVTAADTAVYYCPRGPTMIRGVIDSWGQGTLVTVSS
VL: EIVLTQSPATLSLSPGERATLSCRASQSVRSYLAWYQQKPGQAPRLLIYDASNRATGIPARFSGSGSGTDFTLTISSLEPEDFAVYYCQQRSNWPPTFGQGTKVEIK
On to B4, for which the Kd in assay [1] is 0.112 nM.

B5: XENP37385 – αCD5 (Cd5-A) x αTGFßRII (bispecific antibody)
heavy: EVQLKESGAELVRPGGSVKISCKGSGYTFTNFAIHWVKQSHIKTLEWIGLISTSSGDVSYNQKFKDKATMTVDKSSSTAYMELARLTSEDSAIYYCARHYGANNYFDYWGQGTLVTVSSASTKGPSVFPLAPSSKSTSGGTAALGCLVKDYFPEPVTVSWNSGALTSGVHTFPAVLQSSGLYSLSSVVTVPSSSLGTQTYICNVNHKPSDTKVDKKVEPKSCDKTHTCPPCPAPPVAGPSVFLFPPKPKDTLMISRTPEVTCVVVDVKHEDPEVKFNWYVDGVEVHNAKTKPREEEYNSTYRVVSVLTVLHQDWLNGKEYKCKVSNKALPAPIEKTISKAKGQPREPQVYTLPPSREEMTKNQVSLTCDVSGFYPSDIAVEWESDGQPENNYKTTPPVLDSDGSFFLYSKLTVDKSRWEQGDVFSCSVMHEALHNHYTQKSLSLSPGK
scFv-Fc: QLQVQESGPGLVKPSETLSLTCTVSGGSISNSYFSWGWIRQPPGKGLEWIGSFYYGEKTYYNPSLKSRATISIDTSKSQFSLKLSSVTAADTAVYYCPRGPTVIRGVIDSWGQGTLVTVSSGKPGSGKPGSGKPGSGKPGSEIVLTQSPATLSLSPGERATLSCRASQSVRSYLAWYQQKPGQAPRLLIYDASNRATGIPARFSGSGSGTDFTLTISSLEPEDFAVYYCQQRSNWPPTFGQGTKVEIKEPKSSDKTHTCPPCPAPPVAGPSVFLFPPKPKDTLMISRTPEVTCVVVDVKHEDPEVKFNWYVDGVEVHNAKTKPREEQYNSTYRVVSVLTVLHQDWLNGKEYKCKVSNKALPAPIEKTISKAKGQPREPQVYTLPPSREQMTKNQVKLTCLVKGFYPSDIAVEWESNGQPENNYKTTPPVLDSDGSFFLYSKLTVDKSRWQQGNVFSCSVMHEALHNHYTQKSLSLSPGK
light: EIVLTQSPTIMSASPGEQVTMTCRTNSSVSSSYLHWYQQKSGASPKLWIYGTSNLASGVPTRFSGSGSGTSYSLTISSVEAGDAATYFCQQYSGYPLTFGGGTKVEIKRTVAAPSVFIFPPSDEQLKSGTASVVCLLNNFYPREAKVQWKVDNALQSGNSQESVTEQDSKDSTYSLSSTLTLSKADYEKHKVYACEVTHQGLSSPVTKSFNRGEC
In assay [3], B5 showed a Kd of 11.3 nM.

B6: XENP35399 – αCD5 (5D7) x αTGFßRII (bispecific antibody)
heavy: EVQLVESGGGVVQPGRSLRLSCTFSGFSLSTSGMGVGWIRQAPGKGLEWVAHIWWDDDVYYNPSLKSRLTITKDASTDTVYMELSSLRSEDTAVYYCVRRRATGTGFDYWGQGTLVTVSSASTKGPSVFPLAPSSKSTSGGTAALGCLVKDYFPEPVTVSWNSGALTSGVHTFPAVLQSSGLYSLSSVVTVPSSSLGTQTYICNVNHKPSDTKVDKKVEPKSCDKTHTCPPCPAPPVAGPSVFLFPPKPKDTLMISRTPEVTCVVVDVKHEDPEVKFNWYVDGVEVHNAKTKPREEEYNSTYRVVSVLTVLHQDWLNGKEYKCKVSNKALPAPIEKTISKAKGQPREPQVYTLPPSREEMTKNQVSLTCDVSGFYPSDIAVEWESDGQPENNYKTTPPVLDSDGSFFLYSKLTVDKSRWEQGDVFSCSVMHEALHNHYTQKSLSLSPGK
scFv-Fc: QLQVQESGPGLVKPSETLSLTCTVSGGSISNSYFSWGWIRQPPGKGLEWIGSFYYGEKTYYNPSLKSRATISIDTSKSQFSLKLSSVTAADTAVYYCPRGPTVIRGVIDSWGQGTLVTVSSGKPGSGKPGSGKPGSGKPGSEIVLTQSPATLSLSPGERATLSCRASQSVRSYLAWYQQKPGQAPRLLIYDASNRATGIPARFSGSGSGTDFTLTISSLEPEDFAVYYCQQRSNWPPTFGQGTKVEIKEPKSSDKTHTCPPCPAPPVAGPSVFLFPPKPKDTLMISRTPEVTCVVVDVKHEDPEVKFNWYVDGVEVHNAKTKPREEQYNSTYRVVSVLTVLHQDWLNGKEYKCKVSNKALPAPIEKTISKAKGQPREPQVYTLPPSREQMTKNQVKLTCLVKGFYPSDIAVEWESNGQPENNYKTTPPVLDSDGSFFLYSKLTVDKSRWQQGNVFSCSVMHEALHNHYTQKSLSLSPGK
light: NIVMTQSPSSLSASVGDRVTITCQASQDVGTAVAWYQQKPDQSPKLLIYWTSTRHTGVPDRFTGSGSGTDFTLTISSLQPEDIATYFCHQYNSYNTFGSGTKLEIKRTVAAPSVFIFPPSDEQLKSGTASVVCLLNNFYPREAKVQWKVDNALQSGNSQESVTEQDSKDSTYSLSSTLTLSKADYEKHKVYACEVTHQGLSSPVTKSFNRGEC
In assay [3], B6 showed a Kd of 72 nM. Against the preceding molecule, the Kd is about 6.4-fold higher.

B7: XENP37388 – αCD5 (Cd5-B) x αTGFßRII (bispecific antibody)
heavy: QVTLKESGAELVRPGASVKLSCKASGYSFTSYWMNWVKQRPGQGLEWIGMIHPSDSETRLNQKFKDKATLTVDKSSSTAYMQLSSPTSEDSAVYYCARWGDHDDAMDFWGQGTMVTVSSASTKGPSVFPLAPSSKSTSGGTAALGCLVKDYFPEPVTVSWNSGALTSGVHTFPAVLQSSGLYSLSSVVTVPSSSLGTQTYICNVNHKPSDTKVDKKVEPKSCDKTHTCPPCPAPPVAGPSVFLFPPKPKDTLMISRTPEVTCVVVDVKHEDPEVKFNWYVDGVEVHNAKTKPREEEYNSTYRVVSVLTVLHQDWLNGKEYKCKVSNKALPAPIEKTISKAKGQPREPQVYTLPPSREEMTKNQVSLTCDVSGFYPSDIAVEWESDGQPENNYKTTPPVLDSDGSFFLYSKLTVDKSRWEQGDVFSCSVMHEALHNHYTQKSLSLSPGK
scFv-Fc: QLQVQESGPGLVKPSETLSLTCTVSGGSISNSYFSWGWIRQPPGKGLEWIGSFYYGEKTYYNPSLKSRATISIDTSKSQFSLKLSSVTAADTAVYYCPRGPTVIRGVIDSWGQGTLVTVSSGKPGSGKPGSGKPGSGKPGSEIVLTQSPATLSLSPGERATLSCRASQSVRSYLAWYQQKPGQAPRLLIYDASNRATGIPARFSGSGSGTDFTLTISSLEPEDFAVYYCQQRSNWPPTFGQGTKVEIKEPKSSDKTHTCPPCPAPPVAGPSVFLFPPKPKDTLMISRTPEVTCVVVDVKHEDPEVKFNWYVDGVEVHNAKTKPREEQYNSTYRVVSVLTVLHQDWLNGKEYKCKVSNKALPAPIEKTISKAKGQPREPQVYTLPPSREQMTKNQVKLTCLVKGFYPSDIAVEWESNGQPENNYKTTPPVLDSDGSFFLYSKLTVDKSRWQQGNVFSCSVMHEALHNHYTQKSLSLSPGK
light: DIVLTQSPASLSASVGESVTITCRPSENIYGYFAWYQQRQGKSPQLLVYNAKTLAEGVPSRFSGSGSGTHFSLKINSLQPEDFGTYYCQHHYGTPFTFGPGTKVDIKRTVAAPSVFIFPPSDEQLKSGTASVVCLLNNFYPREAKVQWKVDNALQSGNSQESVTEQDSKDSTYSLSSTLTLSKADYEKHKVYACEVTHQGLSSPVTKSFNRGEC
Regarding B7, in assay [3], the dissociation constant Kd turned out to be 0.74 nM.

B8: XENP37388 (bispecific antibody)
heavy: QVTLKESGAELVRPGASVKLSCKASGYSFTSYWMNWVKQRPGQGLEWIGMIHPSDSETRLNQKFKDKATLTVDKSSSTAYMQLSSPTSEDSAVYYCARWGDHDDAMDFWGQGTMVTVSSASTKGPSVFPLAPSSKSTSGGTAALGCLVKDYFPEPVTVSWNSGALTSGVHTFPAVLQSSGLYSLSSVVTVPSSSLGTQTYICNVNHKPSDTKVDKKVEPKSCDKTHTCPPCPAPPVAGPSVFLFPPKPKDTLMISRTPEVTCVVVDVKHEDPEVKFNWYVDGVEVHNAKTKPREEEYNSTYRVVSVLTVLHQDWLNGKEYKCKVSNKALPAPIEKTISKAKGQPREPQVYTLPPSREEMTKNQVSLTCDVSGFYPSDIAVEWESDGQPENNYKTTPPVLDSDGSFFLYSKLTVDKSRWEQGDVFSCSVMHEALHNHYTQKSLSLSPGK
scFv-Fc: QLQVQESGPGLVKPSETLSLTCTVSGGSISNSYFSWGWIRQPPGKGLEWIGSFYYGEKTYYNPSLKSRATISIDTSKSQFSLKLSSVTAADTAVYYCPRGPTVIRGVIDSWGQGTLVTVSSGKPGSGKPGSGKPGSGKPGSEIVLTQSPATLSLSPGERATLSCRASQSVRSYLAWYQQKPGQAPRLLIYDASNRATGIPARFSGSGSGTDFTLTISSLEPEDFAVYYCQQRSNWPPTFGQGTKVEIKEPKSSDKTHTCPPCPAPPVAGPSVFLFPPKPKDTLMISRTPEVTCVVVDVKHEDPEVKFNWYVDGVEVHNAKTKPREEQYNSTYRVVSVLTVLHQDWLNGKEYKCKVSNKALPAPIEKTISKAKGQPREPQVYTLPPSREQMTKNQVKLTCLVKGFYPSDIAVEWESNGQPENNYKTTPPVLDSDGSFFLYSKLTVDKSRWQQGNVFSCSVMHEALHNHYTQKSLSLSPGK
light: DIVLTQSPASLSASVGESVTITCRPSENIYGYFAWYQQRQGKSPQLLVYNAKTLAEGVPSRFSGSGSGTHFSLKINSLQPEDFGTYYCQHHYGTPFTFGPGTKVDIKRTVAAPSVFIFPPSDEQLKSGTASVVCLLNNFYPREAKVQWKVDNALQSGNSQESVTEQDSKDSTYSLSSTLTLSKADYEKHKVYACEVTHQGLSSPVTKSFNRGEC
With B8, binding in assay [4] was characterised by a dissociation constant (Kd) of 2.75 nM.

By Kd is commonly meant the free concentration of one partner at which half of the binding sites on the other are occupied at equilibrium, for simple one-to-one binding. High values mean weaker binding, low ones tighter binding.
